The term EC50 denotes the concentration giving half of the maximal effect. Lower therefore signals a more potent agent.

For 1 molecule, EC50 results are on record in CN116655791A (ZHEJIANG CHUQI BIOLOGICAL TECH CO LTD, dated 2023).

For this assay, the target named is T1, 人泌乳素受体-ECD蛋白 (25-234aa, Factor Xa site, 6xHis) (human).
T1 chain: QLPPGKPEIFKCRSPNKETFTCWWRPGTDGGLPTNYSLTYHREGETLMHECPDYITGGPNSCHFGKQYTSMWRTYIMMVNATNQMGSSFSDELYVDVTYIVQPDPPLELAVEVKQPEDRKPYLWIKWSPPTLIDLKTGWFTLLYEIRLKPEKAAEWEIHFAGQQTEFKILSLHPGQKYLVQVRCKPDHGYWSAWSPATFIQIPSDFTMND
Briefly: indirect ELISA on coated PRLR-ECD. In general terms: An ELISA detects its analyte on a solid surface through an enzyme-linked reagent.

B1: 抗泌乳素受体的纳米抗体融合蛋白CQ24-Fc (Fc fusion)
chain: SQVQLVESGGGSVQAGGSLRLSCVASGYTRRGNCLGWFRQAPGKEREGVASIYASSGWTSYADSVKGRFTISLDNAKTMVYLQMNSLNPEDTAMYFCAAADTGLCGLGARIYSYWGQGTQVTVSSDKTHTCPPCPAPEAAGGPSVFLFPPKPKDTLMISRTPEVTCVVVDVSHEDPEVKFNWYVDGVEVHNAKTKPREEQYNSTYRVVSVLTVLHQDWLNGKEYKCKVSNKALPAPIEKTISKAKGQPREPQVYTLPPSREEMTKNQVSLTCLVKGFYPSDIAVEWESNGQPENNYKTTPPVLDSDGSFFLYSKLTVDKSRWQQGNVFSCSVMHEALHNHYTQKSLSLSLGK
notes: the signal peptide is left out here; also called CQ24纳米抗体; CQ24-VHH
The molecule B1 had a concentration for a half-maximal effect (EC50) of 4.6 ng/mL.
